# According to patent US20240240209A1, “SYNTHESIS OF ENANTIOPURE CIS-A-IRONE FROM A RENEWABLE CARBON SOURCE” (Agency for Science, Technology and Research, priority 2021, published 2024):
# Residue numbers refer to the chain shown, from its start. Names may count otherwise.
# B1: pMT1_R160I: pMT1 with R160I (protein)
# chain: MPQEARTPQQQVTADEVGDWYDKFGEVYHLTLGESVHCGLWFPPDAPVPQDMELVTMSSQAQDRYTDYLIETLDPKAGQHLLDIGCGTGRTALKAARQRGIAVTGVAVSKEQIAAANRLAAGHGLTERLTFEVADAMRLPYEDESFDCAWAIESLCHMDIAKALGEAWRVLKPGGDLLVLESVVTEELTEPETALFETLYAANVPPRLGEFFDIVSGAGFHTLSLKDLSANLAMTMNVFALGVYSRRAEFTERFGAEFVDGLLAGLGSAQETLIRKTRFFMATLRKPAV
# B2: pMT1_Y200M: pMT1 with Y200M (protein)
# chain: B1 chain with I160R, Y200M
# B3: pMT1_R160L (protein)
# chain: B1 chain with I160L
# B4: pMT1_Y200I: pMT1 with Y200I (protein)
# chain: B1 chain with I160R, Y200I
# B5: pMT1_Y200K: pMT1 with Y200K (protein)
# chain: B1 chain with I160R, Y200K
# B6: pMT1_E153R: pMT1 with E153R (protein)
# chain: B1 chain with E153R, I160R
# B7: pMT1_M236L: pMT1 with M236L (protein)
# chain: B1 chain with I160R, M236L
# B8: pMT1_E153S: pMT1 with E153S (protein)
# chain: B1 chain with E153S, I160R
# B9: pMT1_M236P: pMT1 with M236P (protein)
# chain: B1 chain with I160R, M236P
# B10: pMT1_M236K: pMT1 with M236K (protein)
# chain: B1 chain with I160R, M236K
# B11: pMT1_R160N (protein)
# chain: B1 chain with I160N
# B12: pMT1_Y200R (protein)
# chain: B1 chain with I160R, Y200R
# B13: pMT1_E153Q: pMT1 with E153Q (protein)
# chain: B1 chain with E153Q, I160R
# B14: pMT1_E153L: pMT1 with E153L (protein)
# chain: B1 chain with E153L, I160R
# B15: pMT1_M236S: pMT1 with M236S (protein)
# chain: B1 chain with I160R, M236S
# B16: pMT1_E153K: pMT1 with E153K (protein)
# chain: B1 chain with E153K, I160R
# B17: pMT1_Y200Q: pMT1 with Y200Q (protein)
# chain: B1 chain with I160R, Y200Q
# B18: pMT1_M236Q: pMT1 with M236Q (protein)
# chain: B1 chain with I160R, M236Q
# B19: pMT1_Y200P: pMT1 with Y200P (protein)
# chain: B1 chain with I160R, Y200P
# B20: pMT1_R160K: pMT1 with R160K (protein)
# chain: B1 chain with I160K
# B21: pMT1_E153N: pMT1 with E153N (protein)
# chain: B1 chain with E153N, I160R
# B22: pMT1_R160Q: pMT1 with R160Q (protein)
# chain: B1 chain with I160Q
# B23: pMT1_M236I: pMT1 with M236I (protein)
# chain: B1 chain with I160R, M236I
# B24: pMT1_M236R: pMT1 with M236R (protein)
# chain: B1 chain with I160R, M236R
# B25: pMT1_E153P: pMT1 with E153P (protein)
# chain: B1 chain with E153P, I160R
# B26: pMT1_Y200S: pMT1 with Y200S (protein)
# chain: B1 chain with I160R, Y200S
# B27: pMT1_R160P: pMT1 with R160P (protein)
# chain: B1 chain with I160P
# B28: pMT1_E153M: pMT1 with E153M (protein)
# chain: B1 chain with E153M, I160R
# B29: pMT1_M236N: pMT1 with M236N (protein)
# chain: B1 chain with I160R, M236N
# B30: pMT1_R160M: pMT1 with R160M (protein)
# chain: B1 chain with I160M
# B31: pMT1_R160S: pMT1 with R160S (protein)
# chain: B1 chain with I160S
# B32: pMT1_E153I: pMT1 with E153I (protein)
# chain: B1 chain with E153I, I160R
# B33: pMT1_Y200N (protein)
# chain: B1 chain with I160R, Y200N
# Assay: Cell lysate reaction of pMT enzymes with psi-ionone, irones quantified by HS-SPME-GCMS
# Format: biochemical
# Conditions: AUC vs non-mutated (=1)
# Protocol: Using the structure of pMT1 in complex with the cofactor S-adenosyl-L-homocysteine (SAH) and the substrate teleocidin A1 (PDB id: 5GM2) as a template, pMT1 bound to each of the four isomers of α-irone was modelled with the aim of identifying amino acid residues that could be critical to increase cis-α-irone or decrease trans-α-irone production (FIGS. 2d and 2e). […] Site-directed mutagenesis of the 24 residues was carried out with degenerative primers. Subsequently, the mutants of each site were pooled together, and examined if the activity or product-selectivity of the pooled mutants were increased (FIG. 8). This reduced the number of screening reactions to 24, which is manageable when a high-throughput enzymatic assay is not available. […] One residue was chosen and subjected to site-saturation mutagenesis by using degenerative primers containing NNN or NNK. The plasmid library was then transformed into E. coli BL21 (DE3) cells and plated on agar plate containing autoinduction media^19. […] Subsequently, the colonies were collected and resuspended in phosphate saline buffer. Equal number of cells was taken for lysis and cell lysate reactions were carried out in capped SPME-GC vials at 28° C. for 2 days. HS-SPME-GCMS analysis was used to quantify the amount of irones produced by each pooled-colony reaction. […] 24 residues including the control Gly85 (G85m) were subjected to site-saturation mutagenesis, using pMT1 as the template. […] The amount of cis-α-irone produced was estimated based on the area under the gas chromatogram curve (AUC). The fold change is calculated by comparing the AUC of cis-α-irone produced by the mutant enzyme to that of non-mutated.
# For each pMT mutant, it was transformed into BL21 and grown in autoinduction media with 5 mM lactose at 20° C. for 36 hrs. Then, cells were pelleted and concentrated 10 times by adding 1 ml of PBS. The OD600 was measured and 40*600 OD*ul cells were transferred into a new 1.5 ml tube. The cells were spun down and resuspended in 600 μl of lysis buffer (1×DNase buffer, 150 mM NaCl, 0.5% glycerol, 1 mg/ml lysozyme and 20U of DNasel). The cells were incubated for 2 hrs at 20° C. with shaking at 300 rpm. Following that, 2 cycles of freeze-thaw was done to completely lyse the cells. At the end of the 2nd thawing, the cell lysate was used to setup a 1 ml reaction in 2 ml GC vials. The reaction consisted of 50 mM Tris (pH7), 10 mM MgCl2, 60 mM NaCl, 0.2 mM SAM and 10 mg/L of psi-ionone and caryophyllene each. To this, 500 μl of cell lysate was added while the remaining 100 μl was used for SDS-PAGE to analyze the total and soluble protein expression. The reaction was incubated for 2 days at 28° C., 300 rpm prior to extraction of cis-α-irone with 500 μl hexane. From this, 20 μl of organic layer was taken into 180 μl hexane for GCMS analysis.
# For the mutant pMT activity screening, the reactants and products were analyzed by head space solid phase microextraction (HS-SPME) coupled with an Agilent 5977B gas chromatography (GC) system equipped with Agilent DB-5 ms column (30 m×250 μm×0.25 μm) and mass spectrometry (MS) with high efficiency source. The reaction mixtures were carried out in SPME vials which were incubated at 60° C. for 20 mins to allow the release of volatile compounds. The absorbent fiber (50/30 μm divinylbenzol/carboxen/polydimethyl-SPME fiber, SUPELCO) was then exposed to the headspace of the vial for 20 mins. The extracted analytes were desorbed at the GC inlet at 250° C. for 1 min and injected into GC with a split ratio of 200:1. The GC oven temperature increased from 50° C. to 140° C. at a rate of 10° C./min and held at 140° C. for 10 min. Subsequently, the temperature was increased to 320° C. at a rate of 60° C./min and held at 320° C. for 2 mins.
molecule,measurement,setting,value
B1,fold change in cis-α-irone produced,pMT1_R160 mutants,1.5
B2,fold change in cis-α-irone produced,pMT1_Y200 mutants,0.4
B3,fold change in cis-α-irone produced,pMT1_R160 mutants,0.9
B4,fold change in cis-α-irone produced,pMT1_Y200 mutants,2.0
B5,fold change in cis-α-irone produced,pMT1_Y200 mutants,0.0
B6,fold change in cis-α-irone produced,pMT1_E153 mutants,0.0
B7,fold change in cis-α-irone produced,pMT1_M236 mutants,1.1
B8,fold change in cis-α-irone produced,pMT1_E153 mutants,0.0
B9,fold change in cis-α-irone produced,pMT1_M236 mutants,0.0
B10,fold change in cis-α-irone produced,pMT1_M236 mutants,0.0
B11,fold change in cis-α-irone produced,pMT1_R160 mutants,0.8
B12,fold change in cis-α-irone produced,pMT1_Y200 mutants,0.0
B13,fold change in cis-α-irone produced,pMT1_E153 mutants,0.0
B14,fold change in cis-α-irone produced,pMT1_E153 mutants,0.0
B15,fold change in cis-α-irone produced,pMT1_M236 mutants,0.7
B16,fold change in cis-α-irone produced,pMT1_E153 mutants,0.0
B17,fold change in cis-α-irone produced,pMT1_Y200 mutants,0.1
B18,fold change in cis-α-irone produced,pMT1_M236 mutants,0.0
B19,fold change in cis-α-irone produced,pMT1_Y200 mutants,0.0
B20,fold change in cis-α-irone produced,pMT1_R160 mutants,0.0
B21,fold change in cis-α-irone produced,pMT1_E153 mutants,0.0
B22,fold change in cis-α-irone produced,pMT1_R160 mutants,1.3
B23,fold change in cis-α-irone produced,pMT1_M236 mutants,0.5
B24,fold change in cis-α-irone produced,pMT1_M236 mutants,0.0
B25,fold change in cis-α-irone produced,pMT1_E153 mutants,0.0
B26,fold change in cis-α-irone produced,pMT1_Y200 mutants,0.2
B27,fold change in cis-α-irone produced,pMT1_R160 mutants,0.6
B28,fold change in cis-α-irone produced,pMT1_E153 mutants,0.0
B29,fold change in cis-α-irone produced,pMT1_M236 mutants,3.9
B30,fold change in cis-α-irone produced,pMT1_R160 mutants,0.9
B31,fold change in cis-α-irone produced,pMT1_R160 mutants,0.0
B32,fold change in cis-α-irone produced,pMT1_E153 mutants,0.0
B33,fold change in cis-α-irone produced,pMT1_Y200 mutants,0.0
